Laboratory results: paper PMC5153528
Several values for one entry are separate records, joined by “and”; a condition that tells them apart may be missing. Equal values may be shown once.

Experiments:
Assay in all cases: SPR; IgG covalently coupled (sNHS/EDC, printed at four densities, sodium acetate pH 4.5-5.0) on a carboxymethyldextran prism (IBIS MX96 array); FcγR injected as analyte, eight part threefold dilution series generally starting between 18 and 41 µM; running buffer PBS + 0.01% BSA + Tween 20; global kinetic analysis, 1:1 model; two experiments with different preparations of FcγR
[1] = biological target: recombinant monoclonal rhesus macaque IgG2 (MM IgG2), anti-CD8α (rhesus macaque (Macaca mulatta))
[2] = biological target: recombinant monoclonal rhesus macaque IgG1 (MM IgG1), anti-CD8α (rhesus macaque (Macaca mulatta))
[3] = biological target: recombinant monoclonal rhesus macaque IgG4 (MM IgG4), anti-CD8α (rhesus macaque (Macaca mulatta))
[4] = biological target: recombinant monoclonal rhesus macaque IgG3 (MM IgG3), anti-CD8α (rhesus macaque (Macaca mulatta))

| Kd [1] | Kd [2] | Kd [3] | Kd [4] | Substance |
| --- | --- | --- | --- | --- |
| 48 µM and 15 µM | 4 µM and 8 µM | 48 µM and 17 µM | 78 µM and 33 µM | human FcγRIIIa F158 (from UniProt P08637 17-254) (receptor) |
| 41 µM and 32 µM | 21 µM and 9 µM | 20 µM and 11 µM | 25 µM and 11 µM | human FcγRIIa R131 (receptor) |
| 530 µM and 80 µM | 15 µM and 9 µM | 465 µM and 340 µM | 740 µM and 350 µM | human FcγRIIIb SH (from UniProt O75015 17-200) (receptor) |
| 11 µM | 7 µM and 9 µM | 20 µM and 23 µM | 27 µM and 16 µM | human FcγRIIa H131 (from UniProt P12318 34-317) (receptor) |
| 700 µM and 250 µM | 18 µM and 14 µM | 500 µM and 120 µM | 700 µM and 210 µM | human FcγRIIIb NA1 (from UniProt O75015 17-200) (receptor) |
|  | 13 µM and 15 µM | 730 µM and 270 µM | 510 µM and 270 µM | human FcγRIIIb NA2 (from UniProt O75015 17-200) (receptor) |
| 90 µM and 125 µM | 53 µM and 36 µM | 33 µM and 32 µM | 46 µM and 38 µM | human FcγRIIb/c (from UniProt P31994 43-310) (receptor) |
| 21 µM and 14 µM | 4 µM and 5 µM | 29 µM | 84 µM and 27 µM | human FcγRIIIa V158 (receptor) |
